The values below come from patent US20230363418A1, “COMPOSITION FOR PREVENTING OR TREATING NEUROPSYCHOLOGIC DISEASE, COMPRISING MANF” (CEFO CO., LTD., priority 2020, published 2023).

Holding throughout (assay type): in vivo, rat
In assay [1] the test system is IBO-administered memory impairment and autism model. The assay is described as follows: Y-shaped maze experiment. The settings on record: MANF-AAV-hMSC transplanted into the hippocampus of IBO rats. As for the experimental part:
(§1) Memory impairment and autism models were prepared by administering IBO to the entorhinal cortex of the rats, wherein the IBO destroys granule cells of the dentate gyrus (DG) and pyramidal cells of the hippocampus, which receive nerve signals input from the entorhinal cortex. Specifically, the rats were anesthetized with equitensin (10% ethanol containing 350 mM pentobarbital sodium, 250 mM chloral hydrate, 85 mM MgSO and 40% propylene glycol). The incisor bar of a stereotaxic device (Stoelting Co., U.S.A.) was placed 3.4 mm below the interaural line, and the injection needle angle was fixed at […] right from the center of the sagittal plane. 1.5 ul of IBO (1 mg/ml) was injected into the entorhinal cortex of the rat using the stereotaxic device. The IBO was injected into three locations of first, AP: -8.4, ML: -4.8, DV: -4.6; Second, AP; -8.4, ML: -4.8, DV: […]; Third, AP: -8.8, ML: - 3.65, DV: -3.4 (FIG. 7).
(§2) After 2-3 IBO injections, each group was randomly classified into an IBO-administrated group (negative control group), and a GFP-AAV-hMSC-administrated group (GFP-AAV) and a MANF-AAV-hMSC-administrated group […] as a control group. A rest period of one week was provided. […]

Assay [2] has the same test system. The assay is described as follows: Passive avoidance test. The conditions noted are these: MANF-AAV-hMSC transplanted into the hippocampus of IBO rats. As for the experimental part: as §1, with “7). […]” for “7).”
It was performed according to the method described in Heo Het al. (2009) for the same number of rats as in each group of Example 6-1. […] Exactly 24 hours after the adaptation training, the rats were placed in the bright room again, and the latency time to enter the dark room was measured for 720 seconds (confinement experiment).

The test system is the same in assay [3]. The assay is described as follows: Open space behavior test (anxiety behavior). As for the experimental part:
as §1, §2

B1: MANF: one of 16 or more growth factors secreted into nerve stem cells by cerebrovascular cells; amino acid sequence of SEQ ID NO: 1 (protein)
chain: MRRMWATQGLAVALALSVLPGSRALRPGDCEVCISYLGRFYQDLKDRDVTFSPATIENELIKFCREARGKENRLCYYIGATDDAATKIINEVSKPLAHHIPVEKICEKLKKKDSQICELKYDKQIDLSTVDLKKLRVKELKKILDDWGETCKGCAEKSDYIRKINELMPKYAPKAASARTDL
modifications: MANF
Take B1: the “memory ability in Y-shaped maze test” value in assay [1] is on record as “memory improvement”. Moreover, the “memory ability in passive avoidance test” value in assay [2] was “memory improvement”. Further, the results for the “time in the center” value in assay [3] (compared to the IBO group) and in assay [3] (compared to the MSC group) were “significantly increased” and “also increased”, respectively.
